# Measured values taken from patent US20040063635A1.
# Biological target: HSA/hEPO (83.5 Kd) (human)
# Assay: double-antibody sandwich ELISA (R&D Systems EPO kit), against the recombinant human EPO standard
substance,measurement,value
anti-EPO antibodies of the EPO ELISA kit from R&D Systems (tool reagent),activity compared with the standard (of the activity of the EPO standard),0.1
